Substitutions are numbered along the chain they refer to.
Assays:
human TNFR2 [1] = target: T1, human TNFR2 (human, UniProt P20333 23-461); experiment: binding to human TNFR2 CHO cells, IgG format; IgG format, light chain Q89L
T1 construct: expressed on the surface of CHO cells; also called HuTNFR2; TNFRSF1B
T1 sequence: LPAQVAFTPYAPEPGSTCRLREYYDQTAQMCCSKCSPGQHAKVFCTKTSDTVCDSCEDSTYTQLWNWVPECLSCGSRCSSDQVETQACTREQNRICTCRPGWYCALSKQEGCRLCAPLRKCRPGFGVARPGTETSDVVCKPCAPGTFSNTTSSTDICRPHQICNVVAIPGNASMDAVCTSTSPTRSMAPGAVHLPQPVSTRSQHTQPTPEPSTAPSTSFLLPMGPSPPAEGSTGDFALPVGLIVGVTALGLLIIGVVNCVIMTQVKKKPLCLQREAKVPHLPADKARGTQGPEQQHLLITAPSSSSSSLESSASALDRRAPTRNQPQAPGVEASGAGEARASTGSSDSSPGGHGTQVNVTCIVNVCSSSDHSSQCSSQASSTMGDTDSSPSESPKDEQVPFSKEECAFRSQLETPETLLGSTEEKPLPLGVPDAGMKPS

human TNFR2 [2] = target: T1, human TNFR2; experiment: binding to human TNFR2 CHO cells, IgG format; IgG format, light chain Q89L, Y91K
cynomolgus monkey TNFR2 [3] = target: T2, cynomolgus monkey TNFR2 (cynomolgus monkey, UniProt P20333 23-461 (human entry)); experiment: binding to CHO cells over-expressing cyno TNFR2
T2 construct: Cyno TNFR2 over-expressed on CHO cells or native on cyno primary cells; also called Cy TNFR2; cyno TNFR2
T2 chain: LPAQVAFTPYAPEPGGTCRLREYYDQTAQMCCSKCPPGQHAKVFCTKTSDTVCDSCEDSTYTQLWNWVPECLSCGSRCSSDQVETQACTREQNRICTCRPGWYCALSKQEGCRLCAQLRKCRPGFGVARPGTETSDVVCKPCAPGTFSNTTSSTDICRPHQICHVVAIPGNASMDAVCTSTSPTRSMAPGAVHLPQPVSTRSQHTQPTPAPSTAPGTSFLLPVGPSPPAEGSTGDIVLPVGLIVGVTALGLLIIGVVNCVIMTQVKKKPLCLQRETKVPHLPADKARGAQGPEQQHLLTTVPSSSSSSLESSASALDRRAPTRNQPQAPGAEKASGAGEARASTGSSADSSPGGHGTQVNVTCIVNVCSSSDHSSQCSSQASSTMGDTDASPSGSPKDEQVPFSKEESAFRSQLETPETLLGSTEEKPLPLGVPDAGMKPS

human TNFR2 [4] = target: T3, human TNFR2 (human, UniProt P20333 23-461); experiment: binding to human TNFR2 CHO cells (repeats Table 1)
T3 construct: Human TNFR2 over-expressed on CHO cells, full length on transduced NF-KB-GFP Jurkat cells, or native on human primary T cells; also called Hu TNFR2; TNFRSF1B
T3 sequence: T1 sequence

human TNFR2 [5] = target: T3, human TNFR2; experiment: binding to CHO cells over-expressing human TNFR2
human TNFR2 [6] = target: T3, human TNFR2; experiment: cell-based or functional assay
cynomolgus monkey TNFR2 [7] = target: T2, cynomolgus monkey TNFR2; experiment: cell-based or functional assay
human TNFR2 [8] = target: T3, human TNFR2; experiment: cell-based or functional assay; remark: listed apart in the source
cynomolgus monkey TNFR2 [9] = target: T2, cynomolgus monkey TNFR2; experiment: cell-based or functional assay
human TNFR2 [10] = target: T3, human TNFR2; experiment: cell-based or functional assay; remark: listed apart in the source
human TNFR2 [11] = target: T3, human TNFR2; experiment: binding to human TNFR2 CHO cells
human TNFR2 [12] = target: T3, human TNFR2; experiment: binding to human TNFR2 CHO cells; remark: listed apart in the source
human TNFR2 [13] = target: T3, human TNFR2; experiment: cell-based or functional assay; remark: listed apart in the source
cynomolgus monkey TNFR2 [14] = target: T2, cynomolgus monkey TNFR2; experiment: binding to cyno TNFR2 CHO cells (repeats Table 1)
biotinylated cyno TNFR2 = target: T4, biotinylated cyno TNFR2 (cynomolgus monkey, UniProt P20333 23-257 (human entry), limits assumed, biotinylated); experiment: SPR (BIAcore), biotinylated TNFR2 captured on streptavidin chip, antibody as analyte (apparent affinity)
T4 construct: Soluble biotinylated protein captured on a streptavidin chip for SPR; also called CyTNFR2
T4 chain: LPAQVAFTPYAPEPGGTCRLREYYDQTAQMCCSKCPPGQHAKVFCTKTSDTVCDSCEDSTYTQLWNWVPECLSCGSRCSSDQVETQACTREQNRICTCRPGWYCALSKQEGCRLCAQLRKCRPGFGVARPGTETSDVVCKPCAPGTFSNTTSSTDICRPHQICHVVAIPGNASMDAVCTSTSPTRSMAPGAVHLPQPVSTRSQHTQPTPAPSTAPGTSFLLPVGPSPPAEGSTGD
Protocol: (§1) Increased avidity was confirmed by Surface Plasmon Resonance (SPR) using a BIAcore. Briefly, biotinylated human- or cyno-TNFR2 was captured on the surface of a streptavidin chip for 60 seconds at a flow rate of […]. […] The dissociation phase was then initiated with running buffer (HBS-EP+) injected for 600 seconds at […]. Data were analyzed using the Biacore Evaluation Software.

biotinylated human TNFR2 = target: T5, biotinylated human TNFR2 (human, UniProt P20333 23-257, biotinylated); experiment: as above
T5 construct: Soluble biotinylated protein captured on a streptavidin chip for SPR; also called HuTNFR2
T5 sequence: T4 chain with G16S, P36S, Q117P, H164N, A210E, G216S, V223M
Protocol: as §1

B1: IgG2205 (antibody, V domains shown)
VH: QVQLVQSGAEVKKPGASVKVSCKVSGFSFPSSGVDWVRQAPGQGLEWLGVTWGVGSTHYNQKFQGRVTITKDTSKSTVYMELSSLRSEDTAVYYCASGEWDEGFVYWGQGTLVTVSS
VL: DIQLTQSPSFLSASVGDRVTITCKASQNVGTAVAWYQQKPGKAPKLLIYAASTLQSGVPSRFSGSGSGTEFTLTISSLQPEDFATYYCLQYSSYPLTFGGGTKVEIKR
notes: IgG
- EC50 (human TNFR2 [1]): 0.43 nM

B2: IgG 2204 (antibody, V domains shown)
VH: B1 VH
VL: B1 VL with Y91K
notes: IgG
- EC50 (human TNFR2 [2]): 1.63 nM

B3: GBT-TNFR2-854 (parental) (antibody, human IgG2, kappa, V domains shown)
VH: QVQLKESGPGLVAPSQSLSITCTVSGFSFPSSGVDWVRQSPGKGLEWLGVTWGVGSTHYNSALKSRLSISKDNSKSQVFLKMNSLQTEDTAIYYCASGEWDEGFVYWGQGTLVTVSA
VL: DIVMTQSQKFMSTTVGDRVSITCKASQNVGTAVAWYQQKPGQSPKLLIYSASNRYTGVPDRFTGSGSGTDFTLTISNMQSEDLADYFCQQYSSYPLTFGGGTKLEIKR
notes: Chimeric mouse V / human IgG2 effector-null, kappa; same hybridoma clone as IgG1 825
- EC50 (cynomolgus monkey TNFR2 [3]): 0.13 mg/L
- EC50 (human TNFR2 [4]): 0.106 mg/L
- EC50 (human TNFR2 [5]): 0.106 mg/L
- EC50 HuPBMC (ICAM-1 up-regulation) (human TNFR2 [6]): 1.4 mg/L
- EC50 CyPBMC (CD25+/Ki67+ of CD4+ cells) (cynomolgus monkey TNFR2 [7]): 27.2 mg/L
- EC50 (HuPBMC) (human TNFR2 [8]): 1.4 nM
- Jurkat EC50 (human TNFR2 [8]): 1.74 mg/L
- EC50 (CyPBMC) (cynomolgus monkey TNFR2 [9]): 15 nM
- EC50 Jurkat (human TNFR2 [10]): 0.526 mg/L
- EC50 (human TNFR2 [11]): 1.13 nM
- EC50 (human TNFR2 [12]): 1.13 nM
- Jurkat (ng/ml), EC50 in NF-KB-GFP reporter assay (human TNFR2 [13]): 711 ng/mL
- EC50 (cynomolgus monkey TNFR2 [14]): 0.13 mg/L
- Kd (biotinylated cyno TNFR2): 0.89 nM
- koff (biotinylated cyno TNFR2): 0.00996 s⁻¹
- kon (biotinylated cyno TNFR2): 1.12e+07 M⁻¹ s⁻¹
- Kd (biotinylated human TNFR2): 0.11 nM
- koff (biotinylated human TNFR2): 0.00125 s⁻¹
- kon (biotinylated human TNFR2): 1.13e+07 M⁻¹ s⁻¹

From patent US20230406951A1 (Pfizer, published 2023)
